The values below come from the supplement of paper PMC10567573.

± gives the standard deviation.

The data set in a line: protein stability index of a GFP-peptide fusion (GPS, HEK-293T) (PSI 1-6); higher = more stable. The note with it: c terminus: a fixed tail appended.
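Also: 24-mer peptide tiles fused after GFP, lentivirally expressed, FACS-sorted into six equal bins by GFP/DsRed ratio, decoded by Illumina sequencing, PSI is the read-weighted mean bin number.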

On to FAHSSNLLRHQRIHTGERPYKCPE [ZNF263], for which the protein stability index was 2.99 ± 0.28 (treatment: DMSO) and 3.35 ± 0.36 (treatment: MLN4924 1 uM, 8 h).

Regarding FDGPEAWGVCEPQREEVEERMWAA [ZER1], the protein stability index reads like this: (treatment: DMSO) 3.43 ± 0.71; (treatment: MLN4924 1 uM, 8 h) 4 ± 0.53.

FEAPPLQGQAAAPASGSGADSEPA [TRIM55]: the protein stability index reads like this: (treatment: DMSO) 5.65 ± 0.28; (treatment: MLN4924 1 uM, 8 h) 5.53 ± 0.1.

As for FEDLPLQEPQSPQKLNPGFDLAKG [PLAGL1], the protein stability index by setting is: (treatment: DMSO) 5.03 ± 0.14; (treatment: MLN4924 1 uM, 8 h) 4.83 ± 0.19.

As to FESLPENASHKLEVRLVPVSFEDP [ATE1], the protein stability index reads like this: (treatment: DMSO) 3.68 ± 0.13; (treatment: MLN4924 1 uM, 8 h) 3.68 ± 0.31.

Take FFFSSPGNNNGTSIEDGQIPEIIF [BTBD1]: the protein stability index (treatment: DMSO) was 2.39 ± 0.22 and the protein stability index (treatment: MLN4924 1 uM, 8 h) stood at 2.44 ± 0.33.

Consider FHGWKYMFGLVIPLGVLQAIAMYF [SLC2A12], for which the protein stability index was 2.31 ± 0.46 (treatment: DMSO) and 2.6 ± 0.56 (treatment: MLN4924 1 uM, 8 h).

In turn, FKKGKNPTGLLALQQIADFMTTNV [ADD1] gave a protein stability index (treatment: DMSO) of 2 ± 0.23 and a protein stability index (treatment: MLN4924 1 uM, 8 h) of 2.61 ± 0.34.

Sequence FKRSTGTWHHTKPLLPSDLRRTGC [GAN] returned a protein stability index (treatment: DMSO) of 2.78 ± 0.22 and a protein stability index (treatment: MLN4924 1 uM, 8 h) of 2.82 ± 0.39.

For the sequence FKTYISPWERAMGVDPQQKMELGI [MYOZ1], the protein stability index by setting is: (treatment: DMSO) 2.42 ± 0.25; (treatment: MLN4924 1 uM, 8 h) 2.31 ± 0.38.

As to FLLLIVFYTAITKKIFKSHLKSSR [P2RY14], the protein stability index runs as follows: (treatment: DMSO) 2.69 ± 0.42; (treatment: MLN4924 1 uM, 8 h) 2.52 ± 0.65.

As for FLMGRVLYFHHYFPAMLFSSMLTG [POMT2], the protein stability index by setting is: (treatment: DMSO) 3.35 ± 0.21; (treatment: MLN4924 1 uM, 8 h) 3.37 ± 0.43.

With FLPVDTSNNNGRIKQLRSGGTPIR [PTPRD], the protein stability index runs as follows: (treatment: DMSO) 3.33 ± 0.3; (treatment: MLN4924 1 uM, 8 h) 3.51 ± 0.063.

For the sequence FNGNYKVDSPKNFNIAGTVVKYRR [ADAMTSL2], the protein stability index by setting is: (treatment: DMSO) 3.14 ± 0.23; (treatment: MLN4924 1 uM, 8 h) 3.44 ± 0.36.

As to FNKGIYDIHVGLRGVPLLEWETEV [CLCN6], the protein stability index (treatment: DMSO) was 2.13 ± 0.32 and the protein stability index (treatment: MLN4924 1 uM, 8 h) was found to be 2.17 ± 0.44.

On to FQRRNMIEPRERAKFKRKYKVKLV [NOP53], for which the protein stability index was found to be 2.87 ± 0.46 (treatment: DMSO) and 3.39 ± 0.58 (treatment: MLN4924 1 uM, 8 h).

In the case of FQVPVLCAVMNVVFITILIIALIA [CD69], the protein stability index amounted to 2.91 ± 0.36 (treatment: DMSO) and 2.96 ± 0.68 (treatment: MLN4924 1 uM, 8 h).

With FRETEKSRWSEASRAILQRVQAAA [ALKBH7], the protein stability index stood at 3.21 ± 0.18 (treatment: DMSO) and 3.3 ± 0.16 (treatment: MLN4924 1 uM, 8 h).

On to FRFDKPKKSRSPASAEAPGDSGER [ZNF511], for which the protein stability index is, setting by setting: (treatment: DMSO) 4.95 ± 0.11; (treatment: MLN4924 1 uM, 8 h) 5.11 ± 0.38.

For the sequence FRNCGACVTLMQGHEGSVSSCHFA [WDR88], the protein stability index by setting is: (treatment: DMSO) 2.85 ± 0.62; (treatment: MLN4924 1 uM, 8 h) 2.59 ± 0.37.

FRPVSETCTDRSGISTGHWSGEVK [FUT8] gave a protein stability index (treatment: DMSO) of 3.79 ± 0.28 and a protein stability index (treatment: MLN4924 1 uM, 8 h) of 3.84 ± 0.26.

As for FRSRSRLTHLSLSRRASESSLSSE [CDC25B], the protein stability index by setting is: (treatment: DMSO) 3.84 ± 0.22; (treatment: MLN4924 1 uM, 8 h) 3.99 ± 0.099.

FSSITDSTMSLNIITVTLNMEKYN [DVL3]: the protein stability index is 2.93 ± 0.63 (treatment: DMSO) and 2.75 ± 0.57 (treatment: MLN4924 1 uM, 8 h).

FTDYGLAALAVNTSILSRLPPEAL [RNF208] displayed a protein stability index (treatment: DMSO) of 2.29 ± 0.25 and a protein stability index (treatment: MLN4924 1 uM, 8 h) of 2.13 ± 0.31.

For FTEASMMMSLTKLADKELVHMISW [ESR2], the protein stability index amounted to 3.29 ± 0.78 (treatment: DMSO) and 3.48 ± 1.2 (treatment: MLN4924 1 uM, 8 h).

Consider FTGNSKLELNFKAGDVIFLLSRIN [NCF4], for which the protein stability index by setting is: (treatment: DMSO) 2.67 ± 0.76; (treatment: MLN4924 1 uM, 8 h) 3.16 ± 1.1.

With FTGSQPTAERITQLSAPHCKKLSL [ALDH8A1], the protein stability index worked out at 2.89 ± 0.5 (treatment: DMSO) and 3.46 ± 0.35 (treatment: MLN4924 1 uM, 8 h).

As for FTLASSSDTRVGAPATGSGTPGPF [CHIT1], the protein stability index is, setting by setting: (treatment: DMSO) 3.73 ± 0.19; (treatment: MLN4924 1 uM, 8 h) 3.84 ± 0.39.

For FVENGHSESSGQTHLEGDTVQIIC [CFHR2], the protein stability index came to 3.21 ± 0.38 (treatment: DMSO) and 3.67 ± 0.37 (treatment: MLN4924 1 uM, 8 h).

For the sequence FWNSPSSPSSSAASSSSPSSSSAV [RHOBTB2], the protein stability index (treatment: DMSO) was 4.41 ± 0.14 and the protein stability index (treatment: MLN4924 1 uM, 8 h) came to 4.4 ± 0.089.

GAAAPATPTPVAAALDACSGNDPF [SNAP91]: the protein stability index reads like this: (treatment: DMSO) 5.18 ± 0.34; (treatment: MLN4924 1 uM, 8 h) 5.15 ± 0.24.

Regarding GAGDVVLLQRELAQEDSLNKLALQ [LYSMD4], the protein stability index amounted to 4.29 ± 0.29 (treatment: DMSO) and 4.01 ± 0.5 (treatment: MLN4924 1 uM, 8 h).

For the sequence GATLGQTTSEEAVGGATLAQTTSE [HDAC6], the protein stability index was determined as 5.37 ± 0.34 (treatment: DMSO) and 5.63 ± 0.31 (treatment: MLN4924 1 uM, 8 h).

As for GCEHSCVSSEDSFVCQCFEGYILR [MATN2], the protein stability index was determined as 3.12 ± 0.38 (treatment: DMSO) and 3.27 ± 0.53 (treatment: MLN4924 1 uM, 8 h).

For the sequence GDDQPSETDHLSMEEEDPMPRQIS [TPRG1], the protein stability index amounted to 5.47 ± 0.17 (treatment: DMSO) and 5.64 ± 0.22 (treatment: MLN4924 1 uM, 8 h).

GDGLLVGSEKVTMQNLNDRLASYL [KRT16]: the protein stability index runs as follows: (treatment: DMSO) 2.66 ± 0.17; (treatment: MLN4924 1 uM, 8 h) 2.78 ± 0.32.
